Laboratory results from paper PMC13544220, “Glycemic and bodyweight effects of GIPR coding variation reflect differences in surface expression and intrinsic functional impairment” (Science Advances, 2026).
Residue numbers refer to the chain shown, from its start. Numbers in names are those of the source.

Assays:
Assay type in all cases: cell-based, human
[1] = test system: wild-type and variant SNAP-GIPR; test: Surface SNAP-GIPR expression (SNAP-tag labelling) in AD293 cells; conditions: for AD293 Surface: Fig S3E, mean; for Surface SNAP-GIPR expression: sheet Fig 1C;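 as to all read-outs here: scaled to the experimental average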
How it was run: (§1)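 Read-out: whole-cell fluorescence of surface-only SNAP label (Alexa Fluor 647, 500 nM, 10 min, RT), wide-field 20X, several FOVs per well. Flat-field corrected, phase-contrast masked, nontransfected-well signal subtracted; normalized to experiment mean or wild-type.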

[2] = test system: wild-type and variant SNAP-GIPR; test: Surface SNAP-GIPR expression (SNAP-tag labelling) in INS-1 cells; conditions: Fig 4G; Mean
How it was run: as §1

[3] = test system: wild-type and variant SNAP-GIPR; test: Single-concentration GIP cAMP response by HTRF in AD293 cells; conditions: Fig S3F, HTRF, mean;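 also: ratio to experiment-wide average response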
Protocol: (§2) All variants were tested in parallel on each occasion to control for transfection efficiency differences between experiments.

[4] = test system: wild-type and variant SNAP-GIPR; test: Single-concentration GIP cAMP response by HTRF in INS-1 cells; conditions: Fig S3E, mean
Protocol: as §2

[5] = test system: wild-type and variant SNAP-GIPR; test: cADDis cAMP imaging in AD293 cells, ensemble, expression-matched and per decile; conditions: Fig S3F, cADDis, mean;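 also: Ensemble cells as % of IBMX/FSK response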
How it was run: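 AD293 cells were transfected with SNAP-GIPR constructs and cotransduced with the cADDis Green Up cAMP sensor, then labeled after 24 h with 500 nM SNAP-Surface Alexa Fluor 647. Per-cell cADDis intensity was tracked at 37°C in KRBH with 6 mM glucose and 0.1% BSA.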

[6] = test system: wild-type and variant SNAP-GIPR; test: Constitutive and agonist-mediated internalization, reversible SNAP-tag labelling, AD293 cells; set-up: key to Internalisation, Vehicle / Internalisation, +GIP / Internalisation, GIP-only: % internalization: residual fluorescence after Mesna vs pre-Mesna; Surface expression: unit not given here; conditions: Mean; for +GIP internalisation (100 nM) / GIP-specific internalisation (100 nM) / Constitutive internalisation (100 nM) / Surface expression: Fig 4E; for +GIP internalisation (100 nM) / GIP-specific internalisation (100 nM): GIP 100 nM; for Internalisation, +GIP / Internalisation, GIP-only / Internalisation, Vehicle: Fig S4C, AD293
How it was run: (§3)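 Percentage internalization is read as the fraction of specific SNAP fluorescence that survives Mesna stripping, compared with the image taken before Mesna. Wells are imaged in TNE buffer at pH 8.6 and again after 10 min.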

[7] = test system: wild-type and variant SNAP-GIPR; test: Constitutive and agonist-mediated internalization, reversible SNAP-tag labelling, INS-1 cells; set-up: key to Internalisation, GIP-only / Internalisation, Vehicle / Internalisation, +GIP: % internalization: residual fluorescence after Mesna vs pre-Mesna; conditions: Mean; for +GIP internalisation (100 nM) / GIP-specific internalisation (100 nM) / Constitutive internalisation (100 nM): Fig 4G; for +GIP internalisation (100 nM) / GIP-specific internalisation (100 nM): GIP 100 nM; for Internalisation, +GIP / Internalisation, GIP-only / Internalisation, Vehicle: Fig S4C, INS-1
How it was run: as §3

[8] = column repeated, paired with cAMP 100 nM

B1: L262H (protein, UniProt P48546 22-466, looked up, variant L262H)
Gastric inhibitory …: RAETGSKGQTAGELYQRWERYRRECQETLAAAEPPSGLACNGSFDMYVCWDYAAPNATARASCPWYLPWHHHVAAGFVLRQCGSDGQWGLWRDHTQCENPEKNEAFLDQRLILERLQVMYTVGYSLSLATLLLALLILSLFRRLHCTRNYIHINLFTSFMLRAAAILSRDRLLPRPGPYLGDQALALWNQALAACRTAQIVTQYCVGANYTWLLVEGVYLHSLLVLVGGSEEGHFRYYLLHGWGAPALFVIPWVIVRYLYENTQCWERNEVKAIWWIIRTPILMTILINFLIFIRILGILLSKLRTRQMRCRDYRLRLARSTLTLVPLLGVHEVVFAPVTEEQARGALRFAKLGFEIFLSSFQGFLVSVLYCFINKEVQSEIRRGWHHCRLRRSLGEEQRQLPERAFRALPSGSGPGEVPTSRGLSSGTLPGPGNEASRELESYC
AD293 Surface [1, 8]: 0.4082 | AD293 Surface ([1]; paired with cAMP 100 pM): 0.4082 | Surface SNAP-GIPR expression ([1]; replicate 1): 0.05586 | Surface SNAP-GIPR expression ([1]; replicate 2): 0.3975 | Surface SNAP-GIPR expression ([1]; replicate 3): 0.3851 | Surface SNAP-GIPR expression ([1]; replicate 4): 0.346 | Surface SNAP-GIPR expression ([1]; replicate 5): 0.2997 | Surface SNAP-GIPR expression ([1]; replicate 6): 0.4709 | Surface SNAP-GIPR expression ([1]; replicate 7): 0.6801 | Surface SNAP-GIPR expression ([1]; replicate 8): 0.6962 | Surface SNAP-GIPR expression ([1]; replicate 9): 0.3552 | Surface SNAP-GIPR expression ([1]; replicate 10): 0.4769 | Surface SNAP-GIPR expression ([1]; replicate 11): 0.4805 | Surface SNAP-GIPR expression ([1]; replicate 12): 0.4059 | Surface SNAP-GIPR expression ([1]; replicate 13): 0.3345 | Surface SNAP-GIPR expression ([1]; replicate 14): 0.4406 | Surface SNAP-GIPR expression ([1]; replicate 15): 0.3425 | Surface SNAP-GIPR expression ([1]; replicate 16): 0.4438 | Surface SNAP-GIPR expression ([1]; replicate 17): 0.4347 | Surface SNAP-GIPR expression ([1]; replicate 18): 0.4011 | Surface SNAP-GIPR expression ([1]; replicate 19): 0.3575 | Surface SNAP-GIPR expression ([1]; replicate 20): 0.2679 | Surface SNAP-GIPR expression ([1]; replicate 21): 0.3532 | Surface SNAP-GIPR expression ([1]; replicate 22): 0.4093 | Surface SNAP-GIPR expression ([1]; replicate 23): 0.4836 | Surface SNAP-GIPR expression ([1]; replicate 24): 0.3698 | Surface SNAP-GIPR expression ([1]; replicate 25): 0.4044 | Surface SNAP-GIPR expression ([1]; replicate 26): 0.4747 | Surface SNAP-GIPR expression ([1]; replicate 27): 0.4781 | Surface SNAP-GIPR expression ([1]; replicate 28): 0.4405 | Surface SNAP-GIPR expression ([1]; replicate 29): 0.3368 | Surface SNAP-GIPR expression ([1]; replicate 30): 0.4516 | Surface SNAP-GIPR expression ([1]; replicate 31): 0.3843 | Surface SNAP-GIPR expression ([1]; replicate 32): 0.4196 | Surface SNAP-GIPR expression ([1]; replicate 33): 0.4081 | Surface SNAP-GIPR expression ([1]; replicate 34): 0.4658 | Surface SNAP-GIPR expression ([1]; replicate 35): 0.5726 | Surface SNAP-GIPR expression ([1]; replicate 36): 0.3172 | Surface SNAP-GIPR expression ([1]; replicate 37): 0.2985 | Surface SNAP-GIPR expression ([1]; replicate 38): 0.4456 | Surface SNAP-GIPR expression ([1]; replicate 39): 0.3825 | Surface SNAP-GIPR expression ([1]; replicate 40): 0.3992 | Surface SNAP-GIPR expression ([1]; replicate 41): 0.3665 | Surface expression [2]: 0.4629 | AD293 100 pM HTRF [3]: 0.1729 | AD293 100 nM HTRF [3]: 1.14 | INS-1 cAMP (100 nM) [4]: 0.9739 | AD293 100 pM cADDis [5]: 18.6863 | AD293 100 nM cADDis [5]: 34.26 | +GIP internalisation (100 nM) [6]: 0.2171 | GIP-specific internalisation (100 nM) [6]: 0.04083 | Constitutive internalisation (100 nM) [6]: 0.1763 | Surface expression [6]: 0.3728 | Internalisation, +GIP [6]: 58.197 | Internalisation, GIP-only [6]: 10.9885 | Internalisation, Vehicle [6]: 47.2085 | +GIP internalisation (100 nM) [7]: 0.2099 | GIP-specific internalisation (100 nM) [7]: 0.0574 | Constitutive internalisation (100 nM) [7]: 0.1525 | Internalisation, +GIP [7]: 50.32 | Internalisation, GIP-only [7]: 13.8767 | Internalisation, Vehicle [7]: 36.4433

B2: D66G (protein, UniProt P48546 22-466, looked up, variant D66G)
Gastric inhibitory …: B1 Gastric inhibitory … with D45G, H241L
AD293 Surface [1, 8]: 0.2845 | AD293 Surface ([1]; paired with cAMP 100 pM): 0.2845 | Surface SNAP-GIPR expression ([1]; replicate 1): 0.2625 | Surface SNAP-GIPR expression ([1]; replicate 2): 0.397 | Surface SNAP-GIPR expression ([1]; replicate 3): 0.1659 | Surface SNAP-GIPR expression ([1]; replicate 4): 0.02117 | Surface SNAP-GIPR expression ([1]; replicate 5): 0.3372 | Surface SNAP-GIPR expression ([1]; replicate 6): 0.161 | Surface SNAP-GIPR expression ([1]; replicate 7): 0.3578 | Surface SNAP-GIPR expression ([1]; replicate 8): 0.377 | Surface SNAP-GIPR expression ([1]; replicate 9): 0.35 | Surface SNAP-GIPR expression ([1]; replicate 10): 0.5096 | Surface SNAP-GIPR expression ([1]; replicate 11): 0.4534 | Surface SNAP-GIPR expression ([1]; replicate 12): 0.5149 | Surface SNAP-GIPR expression ([1]; replicate 13): 0.197 | Surface SNAP-GIPR expression ([1]; replicate 14): 0.2293 | Surface SNAP-GIPR expression ([1]; replicate 15): 0.3425 | Surface SNAP-GIPR expression ([1]; replicate 16): 0.4052 | Surface SNAP-GIPR expression ([1]; replicate 17): 0.4309 | Surface SNAP-GIPR expression ([1]; replicate 18): 0.3854 | Surface SNAP-GIPR expression ([1]; replicate 19): 0.4111 | Surface SNAP-GIPR expression ([1]; replicate 20): 0.3991 | Surface SNAP-GIPR expression ([1]; replicate 21): 0.5534 | Surface SNAP-GIPR expression ([1]; replicate 22): 0.4128 | Surface SNAP-GIPR expression ([1]; replicate 23): 0.3708 | Surface SNAP-GIPR expression ([1]; replicate 24): 0.3827 | Surface SNAP-GIPR expression ([1]; replicate 25): 0.2399 | Surface SNAP-GIPR expression ([1]; replicate 26): 0.2568 | Surface SNAP-GIPR expression ([1]; replicate 27): 0.1279 | Surface SNAP-GIPR expression ([1]; replicate 28): 0.1278 | Surface SNAP-GIPR expression ([1]; replicate 29): 0.1867 | Surface SNAP-GIPR expression ([1]; replicate 30): 0.2491 | Surface SNAP-GIPR expression ([1]; replicate 31): 0.2077 | Surface SNAP-GIPR expression ([1]; replicate 32): 0.1171 | Surface SNAP-GIPR expression ([1]; replicate 33): 0.1153 | Surface SNAP-GIPR expression ([1]; replicate 34): 0.2022 | Surface SNAP-GIPR expression ([1]; replicate 35): 0.2952 | Surface SNAP-GIPR expression ([1]; replicate 36): 0.2071 | Surface SNAP-GIPR expression ([1]; replicate 37): 0.2146 | Surface SNAP-GIPR expression ([1]; replicate 38): 0.1357 | Surface SNAP-GIPR expression ([1]; replicate 39): 0.1562 | Surface SNAP-GIPR expression ([1]; replicate 40): 0.1831 | Surface SNAP-GIPR expression ([1]; replicate 41): 0.2136 | Surface expression [2]: 0.1735 | AD293 100 pM HTRF [3]: 0.1227 | AD293 100 nM HTRF [3]: 0.328 | INS-1 cAMP (100 nM) [4]: -0.2661 | AD293 100 pM cADDis [5]: -0.704 | AD293 100 nM cADDis [5]: 4.118 | +GIP internalisation (100 nM) [6]: 0.106 | GIP-specific internalisation (100 nM) [6]: -0.001031 | Constitutive internalisation (100 nM) [6]: 0.1071 | Surface expression [6]: 0.1742 | Internalisation, +GIP [6]: 61.627 | Internalisation, GIP-only [6]: -0.8775 | Internalisation, Vehicle [6]: 62.5045 | +GIP internalisation (100 nM) [7]: 0.08951 | GIP-specific internalisation (100 nM) [7]: -0.01151 | Constitutive internalisation (100 nM) [7]: 0.101 | Internalisation, +GIP [7]: 50.62 | Internalisation, GIP-only [7]: -7.618 | Internalisation, Vehicle [7]: 58.2383
